Literature values as cited in article PMC4554922.

Target: SAS-6 head domain (UniProt Q6UVJ0)

Kd: 80 µM
Substance: SAS-6 head domain (from UniProt Q6UVJ0)
